Earlier results in publication PMC5811428.

Target: C5aR (Homo sapiens) (UniProt P21730)
Chain of UniProt P21730 (P21730 whole entry): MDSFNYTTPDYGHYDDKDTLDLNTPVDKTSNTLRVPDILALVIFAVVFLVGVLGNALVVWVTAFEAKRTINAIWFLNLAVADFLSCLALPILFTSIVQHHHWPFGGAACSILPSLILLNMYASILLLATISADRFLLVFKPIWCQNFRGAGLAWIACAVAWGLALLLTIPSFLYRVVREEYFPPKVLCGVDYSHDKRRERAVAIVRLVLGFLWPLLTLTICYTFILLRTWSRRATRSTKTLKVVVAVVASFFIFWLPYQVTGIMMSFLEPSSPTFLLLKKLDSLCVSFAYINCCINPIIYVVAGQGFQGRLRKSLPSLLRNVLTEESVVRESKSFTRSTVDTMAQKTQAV

Kd: 150 µM
Substance: hC5a C-terminal peptide CT peptide (from UniProt P01031)
